# Data from paper PMC12416549 (2024).
# T1: TNFR1 (Homo sapiens, UniProt P19438)
# T1 chain: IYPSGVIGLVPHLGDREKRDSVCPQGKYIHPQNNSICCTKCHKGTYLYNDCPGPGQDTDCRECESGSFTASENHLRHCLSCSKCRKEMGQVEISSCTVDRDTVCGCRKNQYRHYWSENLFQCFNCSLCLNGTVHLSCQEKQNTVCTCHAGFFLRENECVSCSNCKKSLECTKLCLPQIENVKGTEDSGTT
# Target: T1, TNFR1
# Experiment: yeast display SC50
row,apparent Kd (screen),Binder
1,12.5 nM,W70R (designed binder) MTLQELLREEALRRAEAEAFRYALELLAEKFPEQKEYLLDLAEEIESQIRSLSGVDVEDVRKFLDKEWARVKELLAEHPAELAEVEAARAARLAELRAEVEAKVAA
2,0.956 nM,A94L (designed binder) MTLQELLREEALRRAEAEAFRYALELLAEKFPEQKEYLLDLAEEIESQIRSLSGVDVEDVRKFLDKEWAWVKELLAEHPAELAEVEAARAARLLELRAEVEAKVAA
3,0.869 nM,A80H (designed binder) MTLQELLREEALRRAEAEAFRYALELLAEKFPEQKEYLLDLAEEIESQIRSLSGVDVEDVRKFLDKEWAWVKELLAEHPHELAEVEAARAARLAELRAEVEAKVAA
4,0.869 nM,H78Q (designed binder) MTLQELLREEALRRAEAEAFRYALELLAEKFPEQKEYLLDLAEEIESQIRSLSGVDVEDVRKFLDKEWAWVKELLAEQPAELAEVEAARAARLAELRAEVEAKVAA
5,24.4 nM,R89P (designed binder) MTLQELLREEALRRAEAEAFRYALELLAEKFPEQKEYLLDLAEEIESQIRSLSGVDVEDVRKFLDKEWAWVKELLAEHPAELAEVEAAPAARLAELRAEVEAKVAA
6,0.869 nM,F63W (designed binder) MTLQELLREEALRRAEAEAFRYALELLAEKFPEQKEYLLDLAEEIESQIRSLSGVDVEDVRKWLDKEWAWVKELLAEHPAELAEVEAARAARLAELRAEVEAKVAA
7,0.653 nM,V85K (designed binder) MTLQELLREEALRRAEAEAFRYALELLAEKFPEQKEYLLDLAEEIESQIRSLSGVDVEDVRKFLDKEWAWVKELLAEHPAELAEKEAARAARLAELRAEVEAKVAA
8,2.73 nM,E58F (designed binder) MTLQELLREEALRRAEAEAFRYALELLAEKFPEQKEYLLDLAEEIESQIRSLSGVDVFDVRKFLDKEWAWVKELLAEHPAELAEVEAARAARLAELRAEVEAKVAA
9,0.956 nM,A102P (designed binder) MTLQELLREEALRRAEAEAFRYALELLAEKFPEQKEYLLDLAEEIESQIRSLSGVDVEDVRKFLDKEWAWVKELLAEHPAELAEVEAARAARLAELRAEVEPKVAA
10,0.79 nM,A76H (designed binder) MTLQELLREEALRRAEAEAFRYALELLAEKFPEQKEYLLDLAEEIESQIRSLSGVDVEDVRKFLDKEWAWVKELLHEHPAELAEVEAARAARLAELRAEVEAKVAA
11,1.4 nM,L75G (designed binder) MTLQELLREEALRRAEAEAFRYALELLAEKFPEQKEYLLDLAEEIESQIRSLSGVDVEDVRKFLDKEWAWVKELGAEHPAELAEVEAARAARLAELRAEVEAKVAA
12,1.4 nM,R61H (designed binder) MTLQELLREEALRRAEAEAFRYALELLAEKFPEQKEYLLDLAEEIESQIRSLSGVDVEDVHKFLDKEWAWVKELLAEHPAELAEVEAARAARLAELRAEVEAKVAA
13,0.49 nM,A91K (designed binder) MTLQELLREEALRRAEAEAFRYALELLAEKFPEQKEYLLDLAEEIESQIRSLSGVDVEDVRKFLDKEWAWVKELLAEHPAELAEVEAARAKRLAELRAEVEAKVAA
14,3.99 nM,V57D (designed binder) MTLQELLREEALRRAEAEAFRYALELLAEKFPEQKEYLLDLAEEIESQIRSLSGVDDEDVRKFLDKEWAWVKELLAEHPAELAEVEAARAARLAELRAEVEAKVAA
15,0.718 nM,P79L (designed binder) MTLQELLREEALRRAEAEAFRYALELLAEKFPEQKEYLLDLAEEIESQIRSLSGVDVEDVRKFLDKEWAWVKELLAEHLAELAEVEAARAARLAELRAEVEAKVAA
16,0.49 nM,E95V (designed binder) MTLQELLREEALRRAEAEAFRYALELLAEKFPEQKEYLLDLAEEIESQIRSLSGVDVEDVRKFLDKEWAWVKELLAEHPAELAEVEAARAARLAVLRAEVEAKVAA
17,0.539 nM,R97I (designed binder) MTLQELLREEALRRAEAEAFRYALELLAEKFPEQKEYLLDLAEEIESQIRSLSGVDVEDVRKFLDKEWAWVKELLAEHPAELAEVEAARAARLAELIAEVEAKVAA
18,0.49 nM,K62C (designed binder) MTLQELLREEALRRAEAEAFRYALELLAEKFPEQKEYLLDLAEEIESQIRSLSGVDVEDVRCFLDKEWAWVKELLAEHPAELAEVEAARAARLAELRAEVEAKVAA

# Further lines, the binder ahead of its results:
row,Binder,apparent Kd (screen)
1,K30I (designed binder) MTLQELLREEALRRAEAEAFRYALELLAEIFPEQKEYLLDLAEEIESQIRSLSGVDVEDVRKFLDKEWAWVKELLAEHPAELAEVEAARAARLAELRAEVEAKVAA,0.49 nM
2,E43T (designed binder) MTLQELLREEALRRAEAEAFRYALELLAEKFPEQKEYLLDLATEIESQIRSLSGVDVEDVRKFLDKEWAWVKELLAEHPAELAEVEAARAARLAELRAEVEAKVAA,0.79 nM
3,L41R (designed binder) MTLQELLREEALRRAEAEAFRYALELLAEKFPEQKEYLLDRAEEIESQIRSLSGVDVEDVRKFLDKEWAWVKELLAEHPAELAEVEAARAARLAELRAEVEAKVAA,15.2 nM
4,K35I (designed binder) MTLQELLREEALRRAEAEAFRYALELLAEKFPEQIEYLLDLAEEIESQIRSLSGVDVEDVRKFLDKEWAWVKELLAEHPAELAEVEAARAARLAELRAEVEAKVAA,2.48 nM
5,R50K (designed binder) MTLQELLREEALRRAEAEAFRYALELLAEKFPEQKEYLLDLAEEIESQIKSLSGVDVEDVRKFLDKEWAWVKELLAEHPAELAEVEAARAARLAELRAEVEAKVAA,0.539 nM
6,E33N (designed binder) MTLQELLREEALRRAEAEAFRYALELLAEKFPNQKEYLLDLAEEIESQIRSLSGVDVEDVRKFLDKEWAWVKELLAEHPAELAEVEAARAARLAELRAEVEAKVAA,0.539 nM
7,L7S (designed binder) MTLQELSREEALRRAEAEAFRYALELLAEKFPEQKEYLLDLAEEIESQIRSLSGVDVEDVRKFLDKEWAWVKELLAEHPAELAEVEAARAARLAELRAEVEAKVAA,13.8 nM
8,L38T (designed binder) MTLQELLREEALRRAEAEAFRYALELLAEKFPEQKEYTLDLAEEIESQIRSLSGVDVEDVRKFLDKEWAWVKELLAEHPAELAEVEAARAARLAELRAEVEAKVAA,26.9 nM
9,L6C (designed binder) MTLQECLREEALRRAEAEAFRYALELLAEKFPEQKEYLLDLAEEIESQIRSLSGVDVEDVRKFLDKEWAWVKELLAEHPAELAEVEAARAARLAELRAEVEAKVAA,2.05 nM
10,R21I (designed binder) MTLQELLREEALRRAEAEAFIYALELLAEKFPEQKEYLLDLAEEIESQIRSLSGVDVEDVRKFLDKEWAWVKELLAEHPAELAEVEAARAARLAELRAEVEAKVAA,0.49 nM
11,A11W (designed binder) MTLQELLREEWLRRAEAEAFRYALELLAEKFPEQKEYLLDLAEEIESQIRSLSGVDVEDVRKFLDKEWAWVKELLAEHPAELAEVEAARAARLAELRAEVEAKVAA,0.405 nM
12,K35S (designed binder) MTLQELLREEALRRAEAEAFRYALELLAEKFPEQSEYLLDLAEEIESQIRSLSGVDVEDVRKFLDKEWAWVKELLAEHPAELAEVEAARAARLAELRAEVEAKVAA,0.653 nM
13,K30L (designed binder) MTLQELLREEALRRAEAEAFRYALELLAELFPEQKEYLLDLAEEIESQIRSLSGVDVEDVRKFLDKEWAWVKELLAEHPAELAEVEAARAARLAELRAEVEAKVAA,0.539 nM
14,A15H (designed binder) MTLQELLREEALRRHEAEAFRYALELLAEKFPEQKEYLLDLAEEIESQIRSLSGVDVEDVRKFLDKEWAWVKELLAEHPAELAEVEAARAARLAELRAEVEAKVAA,0.539 nM
15,F31E (designed binder) MTLQELLREEALRRAEAEAFRYALELLAEKEPEQKEYLLDLAEEIESQIRSLSGVDVEDVRKFLDKEWAWVKELLAEHPAELAEVEAARAARLAELRAEVEAKVAA,0.49 nM
16,F31Y (designed binder) MTLQELLREEALRRAEAEAFRYALELLAEKYPEQKEYLLDLAEEIESQIRSLSGVDVEDVRKFLDKEWAWVKELLAEHPAELAEVEAARAARLAELRAEVEAKVAA,0.593 nM
17,I49T (designed binder) MTLQELLREEALRRAEAEAFRYALELLAEKFPEQKEYLLDLAEEIESQTRSLSGVDVEDVRKFLDKEWAWVKELLAEHPAELAEVEAARAARLAELRAEVEAKVAA,0.539 nM
